One data set relates to PARP1. The data set is described as follows: spFRET microscopy. The conditions noted are these: buffer, salt, pH and temperature of binding assays not given in the material (Methods 4.4-4.7 empty).
Data set [1] addresses fluorescently labeled mononucleosomes assembled from octamers of recombinant human histones and DNA containing the 147 bp nucleosome positioning sequence 603 (human). The data set is described as follows: spFRET microscopy; nucleosomes N(13, 91) (1 nM; Cy3/Cy5 on nucleosomal DNA) with PARP1 (20 or 50 nM), 30 min at room temperature in TB150 buffer (20 mM Tris-HCl pH 7.9, 5 mM MgCl2, 150 mM KCl, 1 mM β-ME); then NAD+ (20 µM), 45 min; no EGCG.

Data set [2] has the same target. The data set is described as follows: spFRET microscopy; as a2 but nucleosomes N(13, 91) (1 nM) preincubated 15 min with EGCG (0.8 µM) before PARP1 (20 nM), or PARP1 preincubated with EGCG; TB150 buffer, room temperature; then NAD+ (20 µM), 45 min.

Turning to N(13, 91) nucleosome, the binding signal (% nucleosomes bound) in the data set on PARP1 (20 nM PARP1, no EGCG) was determined as 65; in the data set with PARP1 (20 nM PARP1 added to nucleosomes preformed with 0.8 uM EGCG), 67.
As to “human poly(ADP-ribose) polymerase 1 fused with hexahistidine tag at the N-terminus (from UniProt P09874 1-1014) (enzyme)”, the percent of nucleosomes in the complex at 20 nM PARP1 in data set [1] was found to be 65%. For the same substance, the percent of detected particles in the EGCG–nucleosome–PARP1 complex at 20 nM PARP1 and 0.8 µM EGCG in data set [2] was found to be 67%.
